Results: article PMC11573620 (Molecular Therapy, 2024)

Molecular target: T1, human CD155 extracellular domain fused to mouse Fc (human, UniProt P15151 21-343)
T1 sequence (looked up): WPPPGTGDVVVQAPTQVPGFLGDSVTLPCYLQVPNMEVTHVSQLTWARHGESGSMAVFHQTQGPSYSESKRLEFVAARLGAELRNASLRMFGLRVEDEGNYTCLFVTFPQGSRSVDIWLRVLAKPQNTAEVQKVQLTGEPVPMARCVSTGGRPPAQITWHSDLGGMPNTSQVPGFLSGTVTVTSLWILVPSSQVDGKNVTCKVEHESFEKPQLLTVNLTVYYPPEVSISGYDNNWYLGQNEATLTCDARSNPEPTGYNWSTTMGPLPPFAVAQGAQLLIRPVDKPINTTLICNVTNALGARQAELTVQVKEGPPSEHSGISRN
Experiment: ELISA

binding result: binds
B1: human TIGIT extracellular domain, biotinylated (domain or fragment, UniProt Q495A1 22-141, looked up)
chain: MMTGTIETTGNISAEKGGSIILQCHLSSTTAQVTQVNWEQQDQLLAICNADLGWHISPSFKDRVAPGPGLGLTLQSLTVNDTGEYFCIYHTYPDGTYTGRIFLEVLESSVAEHGARFQIP
modifications: biotin
